Test results published in patent US20210040175A1.

Molecular target: human CD20 (human) (UniProt P11836)
Assay: cell-based or functional assay

UniProt P11836, sequence (P11836 whole entry): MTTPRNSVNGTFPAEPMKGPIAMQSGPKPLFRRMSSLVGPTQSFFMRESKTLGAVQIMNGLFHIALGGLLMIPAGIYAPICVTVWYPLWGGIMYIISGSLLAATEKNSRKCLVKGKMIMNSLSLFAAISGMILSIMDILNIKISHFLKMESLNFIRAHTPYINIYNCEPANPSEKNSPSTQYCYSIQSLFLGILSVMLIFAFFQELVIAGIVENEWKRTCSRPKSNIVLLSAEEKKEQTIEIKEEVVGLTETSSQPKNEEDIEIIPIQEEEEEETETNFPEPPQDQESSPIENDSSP

ADCC by haNK cells for SUP-B15^CD20 at the highest 10:1 ET ratio: 60%
Substance: Rituximab (antibody)
